This is an account of results in patent publication US20110165265A1, “TRAIL VARIANTS FOR TREATING CANCER” (FUNDACIÓ GENÒMICA (CRG), priority 2007, published 2011).

The subject of data set [1] is SW948 cells. Nature of the data set: Cell survival / sensitivity of SW948. The data set is classed as cell-based.
The test system of data set [2] is HeLa cells. As to the kind of experiment: Cell survival / sensitivity of HeLa. The data set is classed as cell-based. Here is the method: (B) Effect of increasing of Bortezomib on cell viability. Hela cells appear to tolerate higher concentration of Bortezomib compared to Caski and SIHA cells (C) Combination therapy with 10 nM Bortezomib incubated for 24 h lead to further decreases in cell viability in cells treated with both TRAIL and two of the DR5 mutants (D) Radiation therapy in combination with TRAIL or the DR5 mutants further decrease cell viability in HELA cells. The DR5 mutant show decrease cell viability at lower concentration of ligand compared to TRAIL.

Data set [3] deals with Colo205 cells. As to the kind of experiment: Colo205 apoptosis after pre-incubation of ligand with soluble receptor-Ig. The data set is classed as cell-based, human. As to conditions: 10 ng/ml ligand. Here is the method:
(A) Effect of soluble recombinant DcR1-Ig (sDcR1) on apoptosis induction by TRAIL and DR5-selective variants. […] All graphs are representatives of two independent repeats. (D) Neutralizing antibodies against DcR1 and DcR2 can augment wtTRAIL- but not DR5-variant induced cell death. […] Induction of apoptosis was measured 3 h post-treatment using Annexin V assay. […] The graphs show the average±SEM of three independent experiments.
Induction of cell death was assessed by Annexin V assay 3 h after treatment (FIG. 14), as described above. […] (FIG. 14C). This confirms that the observed differences in blocking efficacy are due to reduced ability of the decoy receptors to bind and inhibit D269H and D269HE195R.

For data set [4], the system named is human umbilical vein endothelial cells (HUVEC). As to the kind of experiment: Viability of HUVEC. The data set is classed as cell-based. The note with it: 50-500 ng/ml, 24 h, MTT. Here is the method: (§1) Human dermal fibroblasts were grown in low glucose DMEM (Sigma) supplemented with 10% fetal calf serum, 50 U/ml penicillin and […] streptomycin; human umbilical vein endothelial cells (HUVEC, PromoCell) were cultured in Endothelial Cell Growth Medium with SupplementMix (PromoCell). Fibroblasts and HUVEC cells were seeded at 1.3×10^5 cells/ml 24 h before treatment with increasing concentrations of TRAIL and DR5-selective variants, D269H and D269HE195R (50-500 ng/ml) for 24 h and cell viability was measured using MTT assay, wherein 200 μg/ml MTT (3-(4,5-dimethylthiazo1-2-yl)-2,5-diphenyl-tetrazolium bromide) was added to control and treated cells and incubated for 3 h at 37° C. The reaction was stopped and the purple formazan precipitate formed was dissolved using dimethyl sulfoxide (DMSO) and the colour intensity was measured at 550 nm on a Wallac multilabel counter. The control value corresponding to untreated cells was taken as 100% and the viability of treated samples was expressed as a percentage of the control. (FIG. 15).

Data set [5] has as its system ML-1 cells. As to the kind of experiment: Cytotoxicity in ML-1 cells. The data set is classed as cell-based. Here is the method:
(§2) Colo205 and ML-1 cells were then treated with increasing concentrations of TRAIL or the DR5-specific variants D269H, D269HE195R, and D269H/T214R, and their cytotoxic potential was measured with a 3-(4,5-dimethylthiazol-2-yl)-2,5-diphenyl tetrazolium bromide (MTT) assay.

Data set [6] has as its system Caski cells. As to the kind of experiment: Cell survival / sensitivity of Caski. The data set is classed as cell-based.
Data set [7] addresses T1, DR5 (Homo sapiens, UniProt O14763).
T1 construct: Effect of soluble recombinant DR5-Ig (sDR5) on apoptosis induction
As to conditions: earlier work referred to; cited from earlier work.

In data set [8] the test system is Human dermal fibroblasts. As to the kind of experiment: MTT viability of human dermal fibroblasts. As to conditions: 50-500 ng/ml, 24 h. The data set is classed as cell-based. Here is the method:
as §1

The subject of data set [9] is Colo205 cells. As to the kind of experiment: Cell survival / sensitivity of Colo205. As to conditions: Colo205. The data set is classed as cell-based. Here is the method:
(B) Effect of increasing concentrations of Aspirin on cell viability. (C) Effect of increasing concentrations of 5-Flurouracil on cell viability. (D) Combination therapy with 5 mM Aspirin pre-incubated for 24 h lead to further decreases in cell viability in cells treated with both TRAIL and two of the DR5 mutants. (E) 30 minute incubation of DR5 mutants, were sufficient decrease cell viability which was further augmented when cells were pre-incubated for 24 h with Aspirin. The shorter incubation period lead to a decrease potency of TRAIL alone or in combination with Aspirin. […] (G) 30 min incubation of the DR5 mutant was sufficient to decrease cell viability which was not enhanced by 5-Flurouracil, and once again the decease potency of TRAIL is seen. Proteins are indicated as follows: TRAIL stands for rhTRAIL WT; D269H stands for rhTRAIL carrying mutation D269H; E195R stands for rhTRAIL carrying mutations D269H and E195R; and M1 stands for rhTRAIL carrying mutations D269H, E194I and I196S.
TRAIL-induced cell death as a function of concentration was measured with the MTS assay.

The subject of data set [10] is A2780 cells. As to the kind of experiment: Annexin V apoptosis assay in A2780. The data set is classed as cell-based, human. As to conditions: A2780 ovarian cancer cells.
Data set [11] deals with T2, DR4 (Homo sapiens, UniProt O00220).
T2 construct: the more commonly used dimeric TRAIL-receptor-IgG Fc chimeric constructs
T2 sequence (O00220 24-239 limits assumed): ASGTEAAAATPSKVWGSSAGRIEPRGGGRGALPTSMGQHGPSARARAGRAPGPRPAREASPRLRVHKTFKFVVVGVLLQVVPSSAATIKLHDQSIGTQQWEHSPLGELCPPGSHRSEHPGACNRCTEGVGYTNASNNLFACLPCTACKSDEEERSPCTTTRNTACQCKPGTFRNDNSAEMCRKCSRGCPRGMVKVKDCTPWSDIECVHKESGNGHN
The note with it: earlier work referred to; cited from earlier work.

For data set [12], the system named is A2780 cells. As to the kind of experiment: MTT cytotoxicity in A2780 (Example 6). The data set is classed as cell-based. The note with it: A2780 (FIG. 8E).
Data set [13] concerns LoVo cells. Nature of the data set: Cell survival / sensitivity of LoVo. The data set is classed as cell-based. An excerpt: C) Effect of increasing concentration of 5-Flurouracil on Lovo cells.
Data set [14] concerns the target T3, DcR1 (Homo sapiens, UniProt O14798).
T3 construct: soluble, recombinant DcR1-Ig (sDcR1) and DcR2-Ig (sDcR2); purchased R&D Systems
T3 sequence (O14798 26-236 limits assumed): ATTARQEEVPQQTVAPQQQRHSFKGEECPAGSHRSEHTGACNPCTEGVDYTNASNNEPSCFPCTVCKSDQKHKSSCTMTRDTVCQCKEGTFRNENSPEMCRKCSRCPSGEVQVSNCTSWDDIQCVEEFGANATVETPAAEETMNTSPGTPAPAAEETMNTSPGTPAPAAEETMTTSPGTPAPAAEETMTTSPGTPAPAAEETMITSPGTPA
As to the kind of experiment: SPR receptor binding assay, immobilized DcR1-Ig. The note with it: 0.1-250 nM ligand. The procedure:
(§3) The response data (in response units) as a function of TRAIL concentration were fitted using a four parameter equation to give an apparent pre-steady state affinity constant.
(§4) Binding experiments were performed at 37° C. using a surface plasmon resonance-based biosensor (Biacore 3000, Biacore AB, Uppsala, Sweden) as previously described^10. In short, DcR1-Ig and DcR2-Ig receptor chimeras (R&D Systems) were captured at a 35 μl/min flow rate using a protein A (Sigma) modified CM5 sensor chip (Biacore). Receptor chimeras were captured at a level of ˜500-800 response units (RU). […] Binding of ligands to the receptors was monitored in real-time. Between injections the protein A sensor surface was regenerated using a 30s pulse of 0.1 M glycine 0.5 M NaCl pH 3. Due to the very slow dissociation of the TRAIL-receptor complex, only pre-steady state binding data could be obtained. In order to obtain data that represent proper high-affinity complex formation, the response at each concentration was recorded 30 sec after the end of the injection. The response data (in response units) as a function of TRAIL concentration were fitted using a four parameter equation to give an apparent pre-steady state affinity constant.
(§5) Affinity of the ligands was assessed by measuring receptor binding in a concentration range of 0.1-250 nM.

In data set [15] the target is T4, DcR2 (Homo sapiens, UniProt Q9UBN6).
T4 construct: soluble, recombinant DcR1-Ig (sDcR1) and DcR2-Ig (sDcR2); purchased R&D Systems
T4 sequence (Q9UBN6 56-211 limits assumed): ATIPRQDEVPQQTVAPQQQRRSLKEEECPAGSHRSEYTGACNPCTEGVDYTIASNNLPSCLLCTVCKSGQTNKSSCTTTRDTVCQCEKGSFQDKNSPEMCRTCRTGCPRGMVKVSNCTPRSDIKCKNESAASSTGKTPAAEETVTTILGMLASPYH
As to the kind of experiment: SPR receptor binding assay, immobilized DcR2-Ig. As to conditions: 0.1-250 nM ligand. Here is the method: as §3, §4, §5

Data set [16] relates to Colo205 cells. As to the kind of experiment: MTT cytotoxicity and DR4/DR5 neutralizing antibodies in Colo205. The note with it: Colo205, at a lower concentration (FIG. 8C). The data set is classed as cell-based, human. Here is the method: To assess the biological activity related to DR5 binding, various cancer cells were used. Colo205 colon carcinoma cells and ML-1 […] myeloid leukemia cells express all four TRAIL receptors on the cell surface, as shown by using FACS analysis (FIG. 7), and are sensitive to TRAIL-induced apoptosis. To test the involvement of DR4 versus DR5 in TRAIL-induced cell death, Colo205 cells were treated with neutralizing anti-DR4 or anti-DR5 antibody for 1 h before the addition of TRAIL. […] In contrast, the DR4 pathway is the major mediator of TRAIL-induced apoptosis in ML-1 cells (FIG. 8A.) To examine whether the DR5-specific TRAIL variants induce cell death in Colo205 cells by way of the DR5 receptor, 1 μg/ml neutralizing anti-DR4 or -DR5 antibodies were administered 1 h before ligand treatment.
as §2

B1: D269H: rhTRAIL carrying mutation D269H; DR5-selective TRAIL variant (protein)
chain: MVRERGPQRVAAHITGTRGRSNTLSSPNSKNEKALGRKINSWESSRSGHSFLSNLHLRNGELVIHEKGFYYIYSQTYFRFQEEIKENTKNDKQMVQYIYKYTSYPDPILLMKSARNSCWSKDAEYGLYSIYQGGIFELKENDRIFVSVTNEHLIDMHHEASFFGAFLVG
As for B1, the “cell viability, single agent” value in data set [1] is given as “decreased cell viability”; in data set [2], “comparable”; in [6], “comparable”; in data set [9], “significantly less cell viability than TRAIL”; in [13] it was “equal decrease in cell viability”. For the same molecule, the “effect of pre-incubation with sDcR2 on apoptosis induction” value in data set [3] is “only at a two fold higher concentration than for wtTRAIL”. Besides, the “effect of pre-incubation with sDcR1 on pro-apoptotic activity” value in [3] (sDcR1 up to 2 μg/ml) is “failed to reduce”. Besides, the cell viability entry in [4] and in data set [8] was “did not result in a decrease in cell viability” each time. Besides, in data set [5], the cell death induction result is on record as “only TRAIL was able to induce cell death”. The “affinity for the DR5 receptor” value in data set [7] was “increased”. Moreover, the “increase in apoptosis / efficiency compared to wtTRAIL” value in [10] is listed as 3-4 fold. In addition, the “binding to DR4” value in data set [11] is on record as “highly reduced”. In data set [12], the “cytotoxic activity compared with wild-type TRAIL” value is on record as “significantly increased”. Also, the “binding towards DcR1, reduction compared to wtTRAIL” value in data set [14] is “approximately 20 fold”. Further, the “binding toward DcR2 compared to wtTRAIL” value in [15] is on record as “reduced”.

B2: M1: rhTRAIL carrying mutations D269H, E194I and I196S (protein, UniProt P50591 1-281, looked up, variant D269H E194I I196S)
Tumor necrosis factor ligand …: MAMMEVQGGPSLGQTCVLIVIFTVLLQSLCVAVTYVYFTNELKQMQDKYSKSGIACFLKEDDSYWDPNDEESMNSPCWQVKWQLRQLVRKMILRTSEETISTVQEKQQNISPLVRERGPQRVAAHITGTRGRSNTLSSPNSKNEKALGRKINSWESSRSGHSFLSNLHLRNGELVIHEKGFYYIYSQTYFRFQIESKENTKNDKQMVQYIYKYTSYPDPILLMKSARNSCWSKDAEYGLYSIYQGGIFELKENDRIFVSVTNEHLIDMHHEASFFGAFLVG
For B2, the “cell viability, single agent” value in data set [1] is listed as “decreased cell viability”; in [2], “comparable”; in data set [6], “comparable”; in [9], “significantly less cell viability than TRAIL”; in data set [13], “equal decrease in cell viability”.

B3: D269HT214R: TRAIL variant containing mutations D269H and T214R (protein, UniProt P50591 1-281, looked up, variant D269H T214R)
Tumor necrosis factor ligand …: MAMMEVQGGPSLGQTCVLIVIFTVLLQSLCVAVTYVYFTNELKQMQDKYSKSGIACFLKEDDSYWDPNDEESMNSPCWQVKWQLRQLVRKMILRTSEETISTVQEKQQNISPLVRERGPQRVAAHITGTRGRSNTLSSPNSKNEKALGRKINSWESSRSGHSFLSNLHLRNGELVIHEKGFYYIYSQTYFRFQEEIKENTKNDKQMVQYIYKYRSYPDPILLMKSARNSCWSKDAEYGLYSIYQGGIFELKENDRIFVSVTNEHLIDMHHEASFFGAFLVG
Consider B3, for which the “increase of apoptosis rate compared to wtTRAIL” value in data set [16] amounted to 1.5 fold. In addition, in data set [5], the cell death induction result is on record as “only TRAIL was able to induce cell death”. Further, in data set [10], the “increase in apoptosis / efficiency compared to wtTRAIL” value amounted to 2 fold. Moreover, the “cytotoxic activity compared with wild-type TRAIL” value in data set [12] is recorded as “significantly increased”.
